Test results published in patent publication US20180002403A1 (published 2018).
Substitutions are numbered along the chain they refer to. Where two headings read alike, the source gives them in different places.

B1: clone 1.1 VH (VHH)
VHH: EVQLVESGGGLVQPGGSLRLSCAASGFTFSSYSMYWVRQAPGKGLEWVANIKQDGSEKYYVDSVKGRFTISRDNAKNSLFLQMNSLRAEDTAVYYCAKGEILPLHFDYWGQGTLVTVSS
B2: clone 1.6 VH (VHH)
VHH: B1 VHH with N50E, K58Q, F80Y, H105Y
B3: clone 2.1 VH (VHH)
VHH: QVQLVQSGAEVKKPGASVKVSCKASGYPFTSYDINWVRQATGQSLEWMGWMNPNSGDTVYAQKFQGRVTMTRNTSISTAYMELSSLRSEDTAVYFCARGRRDDWKNNYWGQGTLVTVSS
B4: clone 2.2 VH (VHH)
VHH: B3 VHH with Q43R, N54T, S55N, D57N, G66D
B5: clone 1.10 VH (VHH)
VHH: VQLVESGGGLVQPGGSLRLSCAASGFTFSSYRMYWVRQAPGKGLEWVASIEQDGSEEYYVDSVKGRFTISRDNAKKSLFLQMNSLRAEDTAVYYCAKGEILPLYFDYWGQGTLVTVSS

Assays:
Test in all cases: BIAcore
[1] = target: T1, Recombinant human IL-17A (Peprotech AF-200-17) (human, UniProt Q16552 24-155)
[2] = target: T1, Recombinant human IL-17A (Peprotech …); remark: listed apart in the source
recombinant IL-17RA [3] = target: T2, recombinant IL-17RA (human, UniProt Q96F46 33-320)
recombinant IL-17RA [4] = target: T2, recombinant IL-17RA; remark: listed apart in the source

T1 sequence (Q16552 24-155): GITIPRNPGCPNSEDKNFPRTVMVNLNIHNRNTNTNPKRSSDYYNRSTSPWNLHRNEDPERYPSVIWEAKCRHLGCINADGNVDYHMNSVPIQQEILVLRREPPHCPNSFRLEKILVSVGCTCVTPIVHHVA

Binder | Kd [1] [nM] | Kd [2] [nM] | Kd (recombinant IL-17RA [3]) [nM] | Kd (recombinant IL-17RA [4]) [nM]
B1 | 5 | 5 |  | 
B2 | 0.63 |  |  | 
B3 |  |  | 6 | 6
B4 |  |  | 1.4 | 
B5 | 1 |  |  | 
